This is an account of results in PMC13397619.

B1: NLV3 TCR beta chain (CDR3β only) (parent)
chain: ASSPTGGSPSPLH
partner: MLVPMVATV

This assay covers variants of B1. The assay is described as follows: T-Switch: Jurkat TCRβ−/− cells expressing a CDR3 saturation-mutagenesis library, stained with two peptide-HLA-A*02:01 tetramers (original and novel peptide) plus anti-CD3, FACS-sorted into four gates, gDNA sequenced. To be noted: with HLA-A*02:01 with peptide … (NLV 3-1, the original bait), tetramers 1 µg/mL, 30 min on ice, DP and SW gates expanded about 10 days between rounds ('two to three rounds of selection' in the Methods), gate SP: higher = more of the variant in the gate that binds the original peptide and not the novel one = retained original binding. Fold enrichment of the CDR3 variant in one FACS gate of a two-tetra, unresolved parent, parent is a CDR3 fragment, scale: fold enrichment, numbering: sequential-on-construct, sequence ….
Consider […] (CDR3 as printed); S3V derived by comparing it with the table's wild-type CDR3 ASSPTGGSPSPLH, for which the enrichment was 0.

On to […] (CDR3 as printed); L12S derived by comparing it with the table's wild-type CDR3 ASSPTGGSPSPLH, for which the enrichment amounted to 1.12.

On to […] (CDR3 as printed); P11D derived by comparing it with the table's wild-type CDR3 ASSPTGGSPSPLH, for which the enrichment turned out to be 0.

On to […] (CDR3 as printed); T5C derived by comparing it with the table's wild-type CDR3 ASSPTGGSPSPLH, for which the enrichment was found to be 0.

Regarding […] (CDR3 as printed); P11A derived by comparing it with the table's wild-type CDR3 ASSPTGGSPSPLH, the enrichment was 7.15.

Take […] (CDR3 as printed); S10F derived by comparing it with the table's wild-type CDR3 ASSPTGGSPSPLH: the enrichment was 0.

As to […] (CDR3 as printed); P11E derived by comparing it with the table's wild-type CDR3 ASSPTGGSPSPLH, the enrichment worked out at 4.19.

On to […] (CDR3 as printed); P4L derived by comparing it with the table's wild-type CDR3 ASSPTGGSPSPLH, for which the enrichment turned out to be 0.

With […] (CDR3 as printed); P9E derived by comparing it with the table's wild-type CDR3 ASSPTGGSPSPLH, the enrichment stood at 0.

In the case of […] (CDR3 as printed); S8T derived by comparing it with the table's wild-type CDR3 ASSPTGGSPSPLH, the enrichment was 0.

As to […] (CDR3 as printed); S8G derived by comparing it with the table's wild-type CDR3 ASSPTGGSPSPLH, the enrichment amounted to 0.

For […] (CDR3 as printed); S2R derived by comparing it with the table's wild-type CDR3 ASSPTGGSPSPLH, the enrichment came out at 0.

As for […] (CDR3 as printed); S8I derived by comparing it with the table's wild-type CDR3 ASSPTGGSPSPLH, the enrichment was 0.

On to […] (CDR3 as printed); L12V derived by comparing it with the table's wild-type CDR3 ASSPTGGSPSPLH, for which the enrichment came to 0.

[…] (CDR3 as printed); P9D derived by comparing it with the table's wild-type CDR3 ASSPTGGSPSPLH: the enrichment is 0.

Consider […] (CDR3 as printed); T5A derived by comparing it with the table's wild-type CDR3 ASSPTGGSPSPLH, for which the enrichment was found to be 2.2.

Regarding […] (CDR3 as printed); S10L derived by comparing it with the table's wild-type CDR3 ASSPTGGSPSPLH, the enrichment was 8.65.

For the variant […] (CDR3 as printed); L12Q derived by comparing it with the table's wild-type CDR3 ASSPTGGSPSPLH, the enrichment amounted to 0.

As for […] (CDR3 as printed); P9I derived by comparing it with the table's wild-type CDR3 ASSPTGGSPSPLH, the enrichment was 0.

With […] (CDR3 as printed); P4Y derived by comparing it with the table's wild-type CDR3 ASSPTGGSPSPLH, the enrichment stood at 1.03.

Regarding […] (CDR3 as printed); S10Q derived by comparing it with the table's wild-type CDR3 ASSPTGGSPSPLH, the enrichment worked out at 5.52.

[…] (CDR3 as printed); T5P derived by comparing it with the table's wild-type CDR3 ASSPTGGSPSPLH: the enrichment was 0.

As for […] (CDR3 as printed); P4E derived by comparing it with the table's wild-type CDR3 ASSPTGGSPSPLH, the enrichment was 3.03.

As to […] (CDR3 as printed); T5I derived by comparing it with the table's wild-type CDR3 ASSPTGGSPSPLH, the enrichment worked out at 11.6.

For the variant […] (CDR3 as printed); P4H derived by comparing it with the table's wild-type CDR3 ASSPTGGSPSPLH, the enrichment came to 0.

As for […] (CDR3 as printed); S2A derived by comparing it with the table's wild-type CDR3 ASSPTGGSPSPLH, the enrichment was 3.53.

With […] (CDR3 as printed); S8N derived by comparing it with the table's wild-type CDR3 ASSPTGGSPSPLH, the enrichment stood at 0.

Regarding […] (CDR3 as printed); S10R derived by comparing it with the table's wild-type CDR3 ASSPTGGSPSPLH, the enrichment came out at 0.

For […] (CDR3 as printed); L12N derived by comparing it with the table's wild-type CDR3 ASSPTGGSPSPLH, the enrichment was 0.

Regarding […] (CDR3 as printed); P11N derived by comparing it with the table's wild-type CDR3 ASSPTGGSPSPLH, the enrichment stood at 0.

For the variant […] (CDR3 as printed); S10N derived by comparing it with the table's wild-type CDR3 ASSPTGGSPSPLH, the enrichment was 0.

For the variant […] (CDR3 as printed); P11V derived by comparing it with the table's wild-type CDR3 ASSPTGGSPSPLH, the enrichment came to 0.

[…] (CDR3 as printed); S3H derived by comparing it with the table's wild-type CDR3 ASSPTGGSPSPLH: the enrichment worked out at 0.783.

Regarding […] (CDR3 as printed); S2N derived by comparing it with the table's wild-type CDR3 ASSPTGGSPSPLH, the enrichment amounted to 0.

As for […] (CDR3 as printed); P9Q derived by comparing it with the table's wild-type CDR3 ASSPTGGSPSPLH, the enrichment came to 0.

As for […] (CDR3 as printed); L12M derived by comparing it with the table's wild-type CDR3 ASSPTGGSPSPLH, the enrichment amounted to 2.27.

In the case of […] (CDR3 as printed); S2Q derived by comparing it with the table's wild-type CDR3 ASSPTGGSPSPLH, the enrichment worked out at 0.

In the case of […] (CDR3 as printed); S10I derived by comparing it with the table's wild-type CDR3 ASSPTGGSPSPLH, the enrichment was 0.

Regarding […] (CDR3 as printed); S10G derived by comparing it with the table's wild-type CDR3 ASSPTGGSPSPLH, the enrichment worked out at 14.9.

[…] (CDR3 as printed); L12R derived by comparing it with the table's wild-type CDR3 ASSPTGGSPSPLH: the enrichment came out at 0.

As to […] (CDR3 as printed); S3L derived by comparing it with the table's wild-type CDR3 ASSPTGGSPSPLH, the enrichment stood at 0.

[…] (CDR3 as printed); P4I derived by comparing it with the table's wild-type CDR3 ASSPTGGSPSPLH: the enrichment was 0.897.

[…] (CDR3 as printed); T5N derived by comparing it with the table's wild-type CDR3 ASSPTGGSPSPLH: the enrichment stood at 0.
